# Test results from the DeepSol protein solubility set.
# Assay: soluble on expression in E. coli; label from the status in PepcDB or PDB records
row,Sequence,soluble on expression in E. coli
1,MPLIRNYDYYDLLNVAPSTSAHRPTVMVTSSRSYMEPQKSRIYYGKNEWRGGNTTIHDPTEFEETTMDKNANEIAGDDKRKKKRWRDLLFPNSRHSSRKDKENSNVSVATRSLSSVSFRSEKPSRRRESGSLSRHRYIPPPPLPMPPRRIMTSTSMGYSDDAMTSSSSHTTTDYDDIVPVPTPSYVIYPAASIAQASRRQQQGSAKNRIFRSPTYHHDAFVNSHEWTLSRSISEMKLGIVGTSQSGKTALVHRYLTGTYTPDESPEGGRFKKEVVIEGQSHLLLIRDEGQQHLDVQFCQWVDAVVFVFNVCSIQSYDSIQALAHEMSKYRNISDLPLILVGTKDHISEKRARVITEDEGRQLAAQMKRCSYFETSSTYGTNVERVFKEACCKIIQLRVRSQVGAAAAASSQARTPTPTHSESGGRKDYQDPSRYISSNSFVMPSNMRPSFPSNSTRRNTVHHRGEHPQQQQYQQQPPSSSRTASERSMSAMLGTPYGNRMPAGVSPSASQKSVHSIANGCYSRSSAALLDSDTPAVNSYLIDSMSSAGFPLSQSGANQVSASTSHLPTPSSTPNTQRKNRRISNIFRQKDHQEEKSKMIESLNLGIGRAIPIKQGNLYKKSSKSALNREWKKKYVCLYSDGRLTYHTNLKEYMDKTAHGKEMDLKLATIRITGRLHPLHSHRVASSVDPMNGGGGGGTPTLKSYEPRRSDVGANSGDGTSGGGSDDAIKENQRQHFSPPAMPQTVAGKKKRESRKIGTNSKHNDEEDECFEVINNCLMRWEFCAGSLEERDEWIQAIGGEIEKSLGKEVANAKTNNRAVANRPDIAALRSIPGNGRCADCGNPSSEWASINLGIIICIECSGIHRNLGSHISKVRGLELDQWPVEHLAVMQAIGNDKANEMWEFGLLNGERKPTPESSREEKERFIDRKYVQKAFLKPIASGEPVTSQLISAVLARDVMSLNVLLANGMSVEEINTTTKDGRTVLHLAASIGSVELAQLLIWHNADAQILDNNGRSCLFYARSNGFREVFDMLVTAGLSPDYGLPQEINDFSQMPEFFAMGSTSNRDYSTSGDEMYGSRRISMGPPPQVPARRYLPQQPELDETSVI,not soluble
2,MPLNHYQQEVGPSLADTSPGKMPDVALLEGRYCSVEHLTVAEHYEDILDFYFTNQILSDWTYMYADPFESEEAVRQCLEDYEQSQNPYFFAIRDKASGKVLGTFSLMAITPKNRSVEMGRVILAPALQKTRAATEAQYLLMKYVFEDLNYRRYEWKCDKSQPPFCQCSHSFRVHL,not soluble
3,MPLTFAHSFADAVPSLSVPWRAEQWPDPRIIVFNHELGQELGIDEASLLSNITQQGHAQAYSGHQFGQFNPLLGDGRALVLGDCAQTNAPHGQFEISLKGSGPTPFARRGDGRATLGPMLREYLISEALHGLGIPTTRSLAVITTGTDVQRERLLPGAVVVRVAQNHLRVGSVQCAAMRDDDSLAALVRYALSSHEDGVSDAEAAGLLLRRVSTSQAKLVAQWMRFGFVHGVMNTDNVTLSGQTIDFGPCAFIDSFHPQAVFSSIDSHGRYSFGRQPSIMGWNIARLAEALLPLMSIDEARNIVHEFPDMYRRSWLDEMADAVGISPDDDHAAGVLDDLVALLDVHRPDYAQFMRSLSDGTTVSLFPWAQQWEAEVSSLRVAAPRNPVYVPRNYLVEDALEHAMNADMSVFSLLVEAGKNPYLREKRFEKLENPAPETWQDYVTYCGTLEHHHHHH,soluble
4,MPMFTSFDHQMMSRAIELAWRGRFTTSPNPNVGCVITRGEQIVGEGFHFRAGEPHAEVHAMRQAGELTRGATAYVTLEPCSHYGRTPPCAEGLIKAGVAKVICAMQDPNPQVAGKGVQMLRDAGIEVEVGLLEADARVLNRGFLKRMETGMPFVQLKMAASLDGQTALANGKSQWITSPAARKDVQRFRAQASAILSTSQTVLADNASLAVRWYDLPSSVQAQYAEADLRQPLRVILDRQHQLHPELALYQTPSPVLRVASENAELCISAENGKLDLRELLALLAQQHNVNQLWVEAGSQLAQSLIEQKLVDEIILYLAPKLMGSDGRGLFGALGLTEMAEAIELKIEDCRMVGADLRIIATPKTKD,not soluble
5,MPNIKIFSGSSHQDLSQKIADRLGLELGKVVTKKFSNQETCVEIGESVRGEDVYIVQSGCGEINDNLMELLIMINACKIASASRVTAVIPCFPYARQDKKDKSRAPISAKLVANMLSVAGADHIITMDLHASQIQGFFDIPVDNLYAEPAVLKWIRENISEWRNCTIVSPDAGGAKRVTSIADRLNVDFALIHKERKKANEVDRMVLVGDVKDRVAILVDDMADTCGTICHAADKLLSAGATRVYAILTHGIFSGPAISRINNACFEAVVVTNTIPQEDKMKHCSKIQVIDISMILAEAIRRTHNGESVSYLFSHVPLLEHHHHHH,soluble
